One may read the stoichiometry N as a count of units in the complex or per binding partner.

The text below walks through data of article PMC6424575.

The target in this assay is stand-alone thioesterase (TE) domain of the 6-deoxyerythronolide B synthase (DEBS). Description: SEC. A general note: In gel filtration, larger molecules generally elute earlier.

For the substance “stand-alone thioesterase (TE) domain of the 6-deoxyerythronolide B synthase (DEBS) (domain or fragment)”, the stoichiometry N was determined as 2.
